The results in this text go back to article PMC9168836, “Clamping of DNA shuts the condensin neck gate” (Proceedings of the National Academy of Sciences of the …, 2021).

T1: Smc4-3xStrepII (budding yeast (S. cerevisiae), UniProt Q12267 1-1418)
T1 construct: Smc4, SMC subunit of budding yeast (S. cerevisiae) condensin; only the head domain, proximal coiled coil and residues 126-144 are resolved in the maps; The tag's end is read from the plasmid's name SMC4-3xStrepII; also called Scm4
T1 sequence: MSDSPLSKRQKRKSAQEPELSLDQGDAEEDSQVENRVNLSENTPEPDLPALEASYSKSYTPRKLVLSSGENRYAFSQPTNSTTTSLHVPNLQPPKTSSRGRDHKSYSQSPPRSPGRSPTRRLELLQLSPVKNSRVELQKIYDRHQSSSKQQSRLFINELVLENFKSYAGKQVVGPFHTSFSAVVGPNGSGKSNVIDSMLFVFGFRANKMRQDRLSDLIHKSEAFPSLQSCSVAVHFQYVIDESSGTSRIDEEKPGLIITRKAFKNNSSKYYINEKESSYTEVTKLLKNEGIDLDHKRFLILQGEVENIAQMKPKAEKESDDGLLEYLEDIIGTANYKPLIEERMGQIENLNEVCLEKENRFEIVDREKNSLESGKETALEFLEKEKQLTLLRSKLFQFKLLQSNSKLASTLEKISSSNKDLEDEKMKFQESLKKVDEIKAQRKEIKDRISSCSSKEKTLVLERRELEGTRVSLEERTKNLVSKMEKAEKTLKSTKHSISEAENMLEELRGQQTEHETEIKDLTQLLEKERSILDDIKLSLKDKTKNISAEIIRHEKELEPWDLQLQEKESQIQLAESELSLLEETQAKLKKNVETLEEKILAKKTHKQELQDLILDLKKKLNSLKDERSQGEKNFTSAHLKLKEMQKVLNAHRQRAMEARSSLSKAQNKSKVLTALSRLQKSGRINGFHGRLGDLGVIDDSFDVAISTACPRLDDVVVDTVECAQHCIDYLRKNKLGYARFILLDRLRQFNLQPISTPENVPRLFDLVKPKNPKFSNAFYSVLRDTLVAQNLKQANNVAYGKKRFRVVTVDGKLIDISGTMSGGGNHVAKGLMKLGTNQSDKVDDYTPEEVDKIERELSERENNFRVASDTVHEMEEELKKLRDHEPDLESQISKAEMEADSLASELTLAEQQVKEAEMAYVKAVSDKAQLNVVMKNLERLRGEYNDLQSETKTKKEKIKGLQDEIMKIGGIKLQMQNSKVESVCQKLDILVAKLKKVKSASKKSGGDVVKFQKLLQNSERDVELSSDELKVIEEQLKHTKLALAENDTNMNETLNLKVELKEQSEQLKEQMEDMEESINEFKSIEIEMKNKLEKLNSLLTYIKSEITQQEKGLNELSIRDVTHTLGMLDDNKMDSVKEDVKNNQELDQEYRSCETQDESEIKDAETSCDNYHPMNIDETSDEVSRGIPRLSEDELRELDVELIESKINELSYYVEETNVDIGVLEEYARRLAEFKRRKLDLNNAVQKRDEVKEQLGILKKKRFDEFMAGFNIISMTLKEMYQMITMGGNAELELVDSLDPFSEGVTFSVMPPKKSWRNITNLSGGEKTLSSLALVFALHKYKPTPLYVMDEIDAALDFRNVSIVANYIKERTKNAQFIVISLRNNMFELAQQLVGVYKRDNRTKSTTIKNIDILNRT

B1: Smc2 (natural protein, budding yeast (S. cerevisiae))
chain: MKVEELIIDGFKSYATRTVITDWDPQFNAITGLNGSGKSNILDAICFVLGIASMSTVRASSLQDLIYKRGQAGVTKASVTIVFDNTDKSNSPIGFTNSPQISVTRQVVLGGTSKYLINGHRAPQQSVLQLFQSVQLNINNPNFLIMQGKITKVLNMKPSEILSLIEEAAGTKMFEDRREKAERTMSKKETKLQENRTLLTEEIEPKLEKLRNEKRMFLEFQSTQTDLEKTERIVVSYEYYNIKHKHTSIRETLENGETRMKMLNEFVKKTSEEIDSLNEDVEEIKLQKEKELHKEGTISKLENKENGLLNEISRLKTSLSIKVENLNDTTEKSKALESEIASSSAKLIEKKSAYANTEKDYKMVQEQLSKQRDLYKRKEELVSTLTTGISSTGAADGGYNAQLAKAKTELNEVSLAIKKSSMKMELLKKELLTIEPKLKEATKDNELNVKHVKQCQETCDKLRARLVEYGFDPSRIKDLKQREDKLKSHYYQTCKNSEYLKRRVTNLEFNYTKPYPNFEASFVHGVVGQLFQIDNDNIRYATALQTCAGGRLFNVVVQDSQTATQLLERGRLRKRVTIIPLDKIYTRPISSQVLDLAKKIAPGKVELAINLIRFDESITKAMEFIFGNSLICEDPETAKKITFHPKIRARSITLQGDVYDPEGTLSGGSRNTSESLLVDIQKYNQIQKQIETIQADLNHVTEELQTQYATSQKTKTIQSDLNLSLHKLDLAKRNLDANPSSQIIARNEEILRDIGECENEIKTKQMSLKKCQEEVSTIEKDMKEYDSDKGSKLNELKKELKLLAKELEEQESESERKYDLFQNLELETEQLSSELDSNKTLLHNHLKSIESLKLENSDLEGKIRGVEDDLVTVQTELNEEKKRLMDIDDELNELETLIKKKQDEKKSSELELQKLVHDLNKYKSNTNNMEKIIEDLRQKHEFLEDFDLVRNIVKQNEGIDLDTYRERSKQLNEKFQELRKKVNPNIMNMIENVEKKEAALKTMIKTIEKDKMKIQETISKLNEYKRETLVKTWEKVTLDFGNIFADLLPNSFAKLVPCEGKDVTQGLEVKVKLGNIWKESLIELSGGQRSLIALSLIMALLQFRPAPMYILDEVDAALDLSHTQNIGHLIKTRFKGSQFIVVSLKEGMFANANRVFRTRFQDGTSVVSIM
notes: Smc2, SMC subunit of budding yeast (S. cerevisiae) condensin; only the head domain and proximal coiled coil (neck) are resolved in the maps; Subunit of the wild-type condensin tetramer and pentamer used for cryo-EM
B2: Ycs4 (natural protein, S. cerevisiae)
chain: MSGFSLSEYLTKFQTTDRESYPRLQDPSRELNVIIDQLAVSPEQIDASPDSLEALIDLCHDFPHLTPKLQTQLSYLISSSLSNLSKDIKANLSSNVNFTEIGGLIPQWKRHLEEYGYLIQVLLTFLQDELHKVSSQSTNLNRSAKNSKNDSANVELFKRDCNQMENLLESITKLLEINLSKIFQTTPEKDLFIGLFTRPLFVLLEIEPVTKVSSLKMFIQRILAMCVKNHGQSSSIQSSLMTNLTYFLHLSVFNAELLKLLNDEYNYPQLTEDILKEISTRVFNAKDTTGPKAISNFLIKLSELSPGIMLRQMNLVITLLNNSSITLRCSVVEACGNIVAELAQDPQTMEHYKQQIAVLIELLEERFQDSNPYVRTKAIQGCSKICDLSSKFNKSKAKFTSLAVRSLQDRSSLVRRNSVKLLSKLLLKHPFKAIHGSQLRLSEWEEYLKGSESQLNSTLKKVESQETLNDTIERSLIEEEVEQDEGQCRTELEGSFNKSAELSRIENEVENINATNTSVLMKLKLMIVYYKDAISFIKEIHKSIELISNLLFSKNRNEVLESMDFLVLADAFDIELSEFGIKKMLHLVWMKGTNDEGTSISVHLIECYKQLFLTAPDSCNMQEKAAHIAKNLINLSIGASIADLASLEQLLGMMYEQKLIDQHVINILWAIYNSASKASMQKEQNVNNRDSEKGFSKEQIHGSIIILGMLSLADNEIALKGLESLLNIGLGAVGLKDLTLCRYSCLALERMVPKRSTIITKAINQELEDVAVKKLYAIIINYTKDNEYYPMCEQALSALFTISSKPDILATDLIREKTMMTFGKPEEEDSILSLEQSSRVVSLSQLLFIVGQVAIKTLVYLEKCEAEFKKRKIEAETRNGKVKNQGADVTNTTQDNGGDKELEMIGGTNEDDFTDAIQFVKENELLFGEKSILGKFCPIVEEIVSNSSRFSDPMLQRTATLCLEKLMCLSSKYCEKSLPLLITVMEKSPDPTIRSNAVLGLGDMAVCFNNLVDENTDYLYRRLHDENLMVQRTCLMTVTFLILAGQVKVKGQLGEMAKCLDNPDQGISDMCRLFFTELASKDNAIYNGFIDIFSNLSSDDLLGKESFKKIIKFLLTFIDKERHQKQLNEKLVGRLRKCETQKQWDDIAFVLNNLPYKNEDVTALLEQGFKVVSAKE
notes: Ycs4, HAWK (HEAT repeat) subunit of S. cerevisiae condensin

Details in all cases: both partners purified
In experiment [1] the target is T1, Smc4-3xStrepII. As to the kind of experiment: cryo-EM structure; condensin tetramer (Smc2, Smc4, Brn1, Ycs4) with 80-bp dsDNA, 5 mM ADP, 1 mM BeSO4, 10 mM NaF in TNT buffer (30 mM Tris/HCl, 60 mM NaCl, 1 mM TCEP, 2 mM MgCl2, pH 7.5), 30 min at room temperature; clamped head module, Forms I and II.
The experiment “Ycs4” deals with B2. Briefly: cryo-EM structure; condensin pentamer (Smc2, Smc4, Brn1, Ycs4, Ycg1) with 80-bp dsDNA, 5 mM ADP, 1 mM BeSO4, 10 mM NaF in TNT buffer pH 7.5; separate maps of the clamped head module and of Ycg1-DNA.
In experiment [2] the target is T1, Smc4-3xStrepII. Described as above.

Turning to B1, the binding result with Smc4-3xStrepII [1] and in the experiment with Ycs4 was “binds” in each case.
For B2, in the experiment with Smc4-3xStrepII [2], the binding result is listed as “binds”.
